Measurements reported in publication PMC11754109 (Nature, 2025).
Values belong to the molecule of their own block, whether it stands above or below them.

What was measured:
[1] = biological target: Fe protein NifH2 of Mo-nitrogenase (Azotobacter vinelandii); assay: SEC-MALS
[2] = biological target: the molecule itself; assay: SEC-MALS

- stoichiometry N (chains per oligomer) [1]: 2
Molecule: Fe protein NifH2 of Mo-nitrogenase (natural protein)

- stoichiometry N (NifH2 dimers per FeSII2 dimer) [1]: 1
B1: FeSII protein (Shethna protein II) of Azotobacter vinelandii (natural protein)
chain: MATIYFSSPLMPHNKKVQAVAGKRSTLLGVAQENGVKIPFECQDGNCGSCLVKITHLDGERIKGMLLTDKERNVLKSVGKLPKSEEERAAVRDLPPTYRLACQTIVTDEDLLVEFTGEPGGA
- stoichiometry N [2]: 2 chains per oligomer
